Columns and labels:
Test in all cases: SPR (BIACORE), captured antibody, FcgR as analyte
[1] = molecular target: T1, cynomolgus monkey FcγRIIa1 extracellular domain, His-tagged (cynomolgus monkey)
T1 construct: also called cyno FcγRIIa1; cynoFcgRIIa1; not shown: C-terminal His-tag
T1 chain: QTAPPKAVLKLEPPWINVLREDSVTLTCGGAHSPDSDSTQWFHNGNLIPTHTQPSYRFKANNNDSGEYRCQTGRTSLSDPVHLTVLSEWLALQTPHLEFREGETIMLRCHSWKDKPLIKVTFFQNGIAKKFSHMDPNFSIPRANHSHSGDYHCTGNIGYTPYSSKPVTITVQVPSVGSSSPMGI
Experimental: (§1) The kinetic analysis of interactions between these antibodies and FcγR was carried out using BIACORE® T200 or BIACORE® 4000 (GE Healthcare). HBS-EP+ (GE Healthcare) was used as the running buffer, and the measurement temperature was set to 25° C. A chip produced by immobilizing Protein A. Protein A/G or mouse anti-human IgG kappa light chain (BD Biosciences) onto a Series S Sensor Chip CM4 or CM5 (GE Healthcare) by the amine-coupling method was used. […] After the measurement, the antibody captured on the chip was washed off by allowing reaction with 10 mM glycine-HCl, pH1.5 and 25 mM NaOH so that the chip was regenerated and used repeatedly. The sensorgrams obtained as measurement results were analyzed by the 1:1 Langmuir binding model using the BIACORE® Evaluation Software to calculate the binding rate constant ka (L/mol/s) and dissociation rate constant kd (l/s), and the dissociation constant KD (mol/L) was calculated from these values. […] Regarding such interactions, KD values were calculated using the following 1:1 binding model described in BIACORE® T100 Software Handbook BR1006-48 Edition AE.

[2] = molecular target: T2, cynomolgus monkey FcγRIIa2 extracellular domain, His-tagged (cynomolgus monkey)
T2 construct: also called cyno FcγRIIa2; cynoFcgRIIa2; not shown: C-terminal His-tag
T2 chain: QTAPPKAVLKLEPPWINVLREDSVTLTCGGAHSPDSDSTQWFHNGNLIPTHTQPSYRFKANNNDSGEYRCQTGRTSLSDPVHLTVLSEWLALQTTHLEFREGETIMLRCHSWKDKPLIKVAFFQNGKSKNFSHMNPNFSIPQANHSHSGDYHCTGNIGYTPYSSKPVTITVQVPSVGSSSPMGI
Experimental: as §1

[3] = molecular target: T3, cynomolgus monkey FcγRIIa3 extracellular domain, His-tagged (cynomolgus monkey)
T3 construct: also called cyno FcγRIIa3; cynoFcgRIIa3; not shown: C-terminal His-tag
T3 chain: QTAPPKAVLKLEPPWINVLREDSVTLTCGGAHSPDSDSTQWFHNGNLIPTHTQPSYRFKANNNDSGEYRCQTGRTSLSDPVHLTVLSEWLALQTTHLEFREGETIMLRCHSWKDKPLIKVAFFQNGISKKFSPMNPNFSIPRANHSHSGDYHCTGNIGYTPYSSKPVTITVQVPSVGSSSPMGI
Experimental: as §1

[4] = molecular target: T4, cynomolgus monkey FcγRIIb extracellular domain, His-tagged (cynomolgus monkey)
T4 construct: also called cyno FcγRIIb; cynoFcγRIIb; not shown: C-terminal His-tag
T4 chain: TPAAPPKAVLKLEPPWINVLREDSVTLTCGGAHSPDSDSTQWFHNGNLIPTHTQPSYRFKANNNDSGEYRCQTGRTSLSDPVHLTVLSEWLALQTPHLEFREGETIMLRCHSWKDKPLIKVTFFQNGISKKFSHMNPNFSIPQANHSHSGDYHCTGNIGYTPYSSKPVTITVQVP
Experimental: as §1

[5] = molecular target: T5, cynomolgus monkey FcγRIIIaS extracellular domain, His-tagged (cynomolgus monkey, UniProt Q8SPW2 21-206 at identity 1.00))
T5 construct: also called cyno FcγRIIIaS; cynoFcγRIIIaS; not shown: C-terminal His-tag
T5 chain: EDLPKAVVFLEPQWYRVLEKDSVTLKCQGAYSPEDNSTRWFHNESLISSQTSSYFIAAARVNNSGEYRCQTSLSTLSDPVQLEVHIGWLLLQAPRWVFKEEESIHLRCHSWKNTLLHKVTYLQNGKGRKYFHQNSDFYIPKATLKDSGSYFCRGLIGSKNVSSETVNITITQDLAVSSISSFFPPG
Experimental: as §1

[6] = molecular target: T6, human FcγRIIaH extracellular domain, His-tagged (human, UniProt P12318 34-217)
T6 construct: also called human FcγRIIa (type H); FcgRIIaH; not shown: C-terminal His-tag
T6 sequence: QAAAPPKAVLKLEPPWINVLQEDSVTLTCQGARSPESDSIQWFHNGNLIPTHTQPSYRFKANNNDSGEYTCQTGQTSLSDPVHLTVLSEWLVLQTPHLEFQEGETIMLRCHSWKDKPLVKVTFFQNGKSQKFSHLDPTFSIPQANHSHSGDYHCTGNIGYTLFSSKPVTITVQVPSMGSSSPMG
Experimental: as §1

[7] = molecular target: T7, human FcγRIIaR extracellular domain, His-tagged (human, UniProt P12318 34-217)
T7 construct: also called human FcγRIIa (type R); FcgRIIaR; not shown: C-terminal His-tag
T7 chain: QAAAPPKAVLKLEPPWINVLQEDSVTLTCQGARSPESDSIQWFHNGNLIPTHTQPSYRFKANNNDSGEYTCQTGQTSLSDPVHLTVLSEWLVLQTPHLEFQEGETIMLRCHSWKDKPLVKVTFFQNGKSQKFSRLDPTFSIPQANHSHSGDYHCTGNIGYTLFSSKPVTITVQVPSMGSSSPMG
Experimental: as §1

[8] = molecular target: T8, human FcγRIIb extracellular domain, His-tagged (human, UniProt P31994 43-217)
T8 construct: also called FcgRIIb (human); not shown: C-terminal His-tag
T8 sequence: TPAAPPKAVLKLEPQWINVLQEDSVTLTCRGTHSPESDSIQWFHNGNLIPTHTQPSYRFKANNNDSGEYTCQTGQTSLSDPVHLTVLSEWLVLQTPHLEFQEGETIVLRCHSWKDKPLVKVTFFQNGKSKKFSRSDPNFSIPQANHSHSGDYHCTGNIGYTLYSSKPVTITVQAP
Experimental: as §1

[9] = molecular target: T9, human FcγRIIIaV extracellular domain, His-tagged (human, UniProt P08637 17-208)
T9 construct: also called FcgRIIIaV; not shown: C-terminal His-tag
Experimental: as §1

T9 sequence (P08637 17-208 F176V): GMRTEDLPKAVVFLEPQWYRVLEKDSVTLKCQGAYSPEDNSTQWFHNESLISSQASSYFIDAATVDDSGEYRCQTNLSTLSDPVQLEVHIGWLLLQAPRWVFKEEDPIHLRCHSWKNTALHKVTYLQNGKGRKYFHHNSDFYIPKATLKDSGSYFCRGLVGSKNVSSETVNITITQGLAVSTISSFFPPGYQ

B1: M103205H795-MY449/M103202L889-SK1 (antibody, human IgG1, kappa)
heavy: QVTLKESGPVLVKPTETLTLTCTVSGIDLSHDDISWVRQAPGKGLEWVGIISYAGSTYYASWAKGRLTISKDTSKNQVVLTMTNMDPVDTATYYCARGVPAYSHGGDLWGQGTLVTVSSASTKGPSVFPLAPSSKSTSGGTAALGCLVKDYFPEPVTVSWNSGALTSGVHTFPAVLQSSGLYSLSSVVTVPSSSLGTQTYICNVNHKPSNTKVDKKVEPKSCDKTHTCPPCPALELLTGPSVFLFPPKPKDTLMISRTPEVTCVVVDVSDEDPEVKFNWYVDGVEVHNAKTKPREEQYNSTYRVVSVLTVLHQDWLNGKEYKCKVSNKALPKPIEKTISKAKGQPREPQVYTLPPSREEMTKNQVSLTCLVKGFYPSDIAVEWESNGQPENNYKTTPPVLDSDGSFFLYSKLTVDKSRWQQGNVFSCSVMHEALHNHYTQKSLSLSP
light: DIVMTQSPATLSLSPGERATLSCTSSQSVYHANWLSWFQQKPGQPPKLLIYWASTLAYGVPSRFSGSGSGTDFTLTISSLQPEDAATYYCAGGYGGGRYAFGQGTKVEIKRTVAAPSVFIFPPSDEQLKSGTASVVCLLNNFYPREAKVQWKVDNALQSGNSQESVTEQDSKDSTYSLSSTLTLSKADYEKHKVYACEVTHQGLSSPVTKSFNRGEC
notes: copies: 2 + 2
B1 showed a Kd [1] of 870 nM, a Kd [2] of 940 nM and a Kd [3] of 1.5 µM. It also gave a Kd [4] of 230 nM, a Kd [5] of 1000 nM and a Kd [6] of 93 nM. The Kd [7] was 74 nM, the Kd [8] was 290 nM and the Kd [9] was 3.7 µM.

B2: M103205H795-MY450/M103202L889-SK1 (antibody, human IgG1, kappa)
heavy: QVTLKESGPVLVKPTETLTLTCTVSGIDLSHDDISWVRQAPGKGLEWVGIISYAGSTYYASWAKGRLTISKDTSKNQVVLTMTNMDPVDTATYYCARGVPAYSHGGDLWGQGTLVTVSSASTKGPSVFPLAPSSKSTSGGTAALGCLVKDYFPEPVTVSWNSGALTSGVHTFPAVLQSSGLYSLSSVVTVPSSSLGTQTYICNVNHKPSNTKVDKKVEPKSCDKTHTCPPCPAMELLTGPSVFLFPPKPKDTLMISRTPEVTCVVVDVSDEDPEVKFNWYVDGVEVHNAKTKPREEQYNSTYRVVSVLTVLHQDWLNGKEYKCKVSNKALPKPIEKTISKAKGQPREPQVYTLPPSREEMTKNQVSLTCLVKGFYPSDIAVEWESNGQPENNYKTTPPVLDSDGSFFLYSKLTVDKSRWQQGNVFSCSVMHEALHNHYTQKSLSLSP
light: DIVMTQSPATLSLSPGERATLSCTSSQSVYHANWLSWFQQKPGQPPKLLIYWASTLAYGVPSRFSGSGSGTDFTLTISSLQPEDAATYYCAGGYGGGRYAFGQGTKVEIKRTVAAPSVFIFPPSDEQLKSGTASVVCLLNNFYPREAKVQWKVDNALQSGNSQESVTEQDSKDSTYSLSSTLTLSKADYEKHKVYACEVTHQGLSSPVTKSFNRGEC
notes: copies: 2 + 2
For B2, the Kd [1] was 1300 nM, the Kd [2] was 1100 nM and the Kd [3] was 2.2 µM. For the same binder, the Kd [4] was 280 nM, the Kd [5] was 1800 nM and the Kd [6] was 130 nM. The Kd [7] was 120 nM, the Kd [8] was 470 nM and the Kd [9] was 4 µM.

B3: M103205H795-MY451/M103202L889-SK1 (antibody, human IgG1, kappa)
heavy: QVTLKESGPVLVKPTETLTLTCTVSGIDLSHDDISWVRQAPGKGLEWVGIISYAGSTYYASWAKGRLTISKDTSKNQVVLTMTNMDPVDTATYYCARGVPAYSHGGDLWGQGTLVTVSSASTKGPSVFPLAPSSKSTSGGTAALGCLVKDYFPEPVTVSWNSGALTSGVHTFPAVLQSSGLYSLSSVVTVPSSSLGTQTYICNVNHKPSNTKVDKKVEPKSCDKTHTCPPCPANELLTGPSVFLFPPKPKDTLMISRTPEVTCVVVDVSDEDPEVKFNWYVDGVEVHNAKTKPREEQYNSTYRVVSVLTVLHQDWLNGKEYKCKVSNKALPKPIEKTISKAKGQPREPQVYTLPPSREEMTKNQVSLTCLVKGFYPSDIAVEWESNGQPENNYKTTPPVLDSDGSFFLYSKLTVDKSRWQQGNVFSCSVMHEALHNHYTQKSLSLSP
light: DIVMTQSPATLSLSPGERATLSCTSSQSVYHANWLSWFQQKPGQPPKLLIYWASTLAYGVPSRFSGSGSGTDFTLTISSLQPEDAATYYCAGGYGGGRYAFGQGTKVEIKRTVAAPSVFIFPPSDEQLKSGTASVVCLLNNFYPREAKVQWKVDNALQSGNSQESVTEQDSKDSTYSLSSTLTLSKADYEKHKVYACEVTHQGLSSPVTKSFNRGEC
notes: copies: 2 + 2
Binder B3 has a Kd [1] of 3600 nM, a Kd [2] of 4200 nM and a Kd [3] of 6.7 µM. For the same binder, the Kd [4] was 1000 nM, the Kd [5] was 2700 nM and the Kd [6] was 410 nM. For the same binder, the Kd [7] was 840 nM, the Kd [8] was 3000 nM and the Kd [9] was 7.1 µM.

B4: M103205H795-MY452/M103202L889-SK1 (antibody, human IgG1, kappa)
heavy: QVTLKESGPVLVKPTETLTLTCTVSGIDLSHDDISWVRQAPGKGLEWVGIISYAGSTYYASWAKGRLTISKDTSKNQVVLTMTNMDPVDTATYYCARGVPAYSHGGDLWGQGTLVTVSSASTKGPSVFPLAPSSKSTSGGTAALGCLVKDYFPEPVTVSWNSGALTSGVHTFPAVLQSSGLYSLSSVVTVPSSSLGTQTYICNVNHKPSNTKVDKKVEPKSCDKTHTCPPCPAQELLTGPSVFLFPPKPKDTLMISRTPEVTCVVVDVSDEDPEVKFNWYVDGVEVHNAKTKPREEQYNSTYRVVSVLTVLHQDWLNGKEYKCKVSNKALPKPIEKTISKAKGQPREPQVYTLPPSREEMTKNQVSLTCLVKGFYPSDIAVEWESNGQPENNYKTTPPVLDSDGSFFLYSKLTVDKSRWQQGNVFSCSVMHEALHNHYTQKSLSLSP
light: DIVMTQSPATLSLSPGERATLSCTSSQSVYHANWLSWFQQKPGQPPKLLIYWASTLAYGVPSRFSGSGSGTDFTLTISSLQPEDAATYYCAGGYGGGRYAFGQGTKVEIKRTVAAPSVFIFPPSDEQLKSGTASVVCLLNNFYPREAKVQWKVDNALQSGNSQESVTEQDSKDSTYSLSSTLTLSKADYEKHKVYACEVTHQGLSSPVTKSFNRGEC
notes: copies: 2 + 2
For B4, the Kd [1] was 3400 nM, the Kd [2] was 3100 nM and the Kd [3] was 6.5 µM. The Kd [4] was 920 nM, the Kd [5] was 2800 nM and the Kd [6] was 360 nM. It also gave a Kd [7] of 620 nM, a Kd [8] of 2900 nM and a Kd [9] of 6.1 µM.

From patent US20200317768A1 (published 2020)
